Drawing on patent US20150086555A1, this text covers Trimeric HA Binding: RLU for 6 molecules.

Positions count from the first letter of the chain named.

Conditions in all cases: remark: other sources report otherwise
Assay [1] deals with T1, recombinant soluble homotrimeric HA of A/Egypt/3300-NAMRU3/08 (H5N1) (Influenza A virus A/Egypt/3300-NAMRU3/2008(H5N1)). Nature of the assay: HA microarray, BCC supernatant.
In assay [2] the target is recombinant soluble homotrimeric HA, A/Anhui/1/05 H5N1 (Influenza A virus A/Anhui/1/2005(H5N1)). The assay can be described thus: microarray, transfection SN IgG, trimeric HA.
The target in assay [3] is recombinant soluble homotrimeric HA, A/California/4/09 H1N1 (Influenza A virus A/California/04/2009(H1N1)). The assay can be described thus: microarray, transfection SN IgG, trimeric HA.
In assay [4] the target is recombinant soluble homotrimeric HA, A/Egypt/3300-NAMRU3/08 H5N1 (Influenza A virus A/Egypt/3300-NAMRU3/2008(H5N1)). Nature of the assay: microarray, transfection SN IgG, trimeric HA.
Assay [5] addresses recombinant soluble homotrimeric HA, A/Hong Kong/156/97 H5N1 (Influenza A virus A/Hong Kong/156/97 (H5N1)). The assay can be described thus: microarray, transfection SN IgG, trimeric HA.
The target of assay [6] is recombinant soluble homotrimeric HA, A/Indonesia/5/05 H5N1 (Influenza A virus A/Indonesia/5/2005(H5N1)). Nature of the assay: microarray, transfection SN IgG, trimeric HA.
In assay [7] the target is recombinant soluble homotrimeric HA, A/Japan/305/57 H2N2 (Influenza A virus A/Japan/305/1957(H2N2)). Nature of the assay: microarray, transfection SN IgG, trimeric HA.
In assay [8] the target is recombinant soluble homotrimeric HA, A/Solomon Islands/3/06 H1N1 (Influenza A virus A/Solomon Islands/3/2006(H1N1)). Nature of the assay: microarray, transfection SN IgG, trimeric HA.
The target in assay [9] is recombinant soluble homotrimeric HA, A/South Carolina/1/18 H1N1 (Influenza A virus A/South Carolina/1/18 (H1N1)). Nature of the assay: microarray, transfection SN IgG, trimeric HA.
In assay [10] the target is recombinant soluble homotrimeric HA, A/Vietnam/1203/04 H5N1 (Influenza A virus A/VietNam/1203/2004(H5N1)). The assay can be described thus: microarray, transfection SN IgG, trimeric HA.
The target in assay [11] is recombinant soluble homotrimeric HA, A/Wisconsin/67/05 H3N2 (Influenza A virus A/Wisconsin/67/2005(H3N2)). Nature of the assay: microarray, transfection SN IgG, trimeric HA.
Assay [12] has as its target recombinant soluble homotrimeric HA, A/chicken/Vietnam/NCVD-016/08 H5N1 (Influenza A virus A/chicken/Vietnam/NCVD-016/2008(H5N1)). The assay can be described thus: microarray, transfection SN IgG, trimeric HA.
For assay [13], the target named is recombinant soluble homotrimeric HA, A/duck/Yangzhou/02/05 H8N4 (Influenza A virus A/duck/Yangzhou/02/2005(H8N4)). Nature of the assay: microarray, transfection SN IgG, trimeric HA.
The target of assay [14] is recombinant soluble homotrimeric HA, A/northern shoveler/California/HKWF115/07 H6N4 (Influenza A virus A/northern shoveler/California/HKWF115/2007(H6N1)). The assay can be described thus: microarray, transfection SN IgG, trimeric HA.
In assay [15] the target is recombinant homotrimeric HA A/duck/Yangzhou/02/05 H8N4 (Influenza A virus A/duck/Yangzhou/02/2005(H8N4)). Nature of the assay: protein microarray, purified IgG, trimeric HA.
Assay [16] concerns the target recombinant soluble homotrimeric HA of A/Anhui/1/05 (H5N1) (Influenza A virus A/Anhui/1/2005(H5N1)). The assay can be described thus: trimeric HA microarray, transfection supernatant set 2.
In assay [17] the target is recombinant soluble homotrimeric HA of A/California/4/09 (H1N1) (Influenza A virus A/California/04/2009(H1N1)). The assay is described as above.
Assay [18] concerns the target T1, recombinant soluble homotrimeric HA of …. Described as above.
The target of assay [19] is recombinant soluble homotrimeric HA of A/Indonesia/5/05 (H5N1) (Influenza A virus A/Indonesia/5/2005(H5N1)). The assay is described as above.
Assay [20] addresses recombinant soluble homotrimeric HA of A/Japan/305/57 (H2N2) (Influenza A virus A/Japan/305/1957(H2N2)). Described as above.
Assay [21] concerns the target recombinant soluble homotrimeric HA of A/Netherlands/219/03 (H7N7) (Influenza A virus A/Netherlands/219/03(H7N7)). Described as above.
In assay [22] the target is recombinant soluble homotrimeric HA of A/Solomon Islands/3/06 (H1N1) (Influenza A virus A/Solomon Islands/3/2006(H1N1)). The description is as above.
In assay [23] the target is recombinant soluble homotrimeric HA of A/South Carolina/1/18 (H1N1) (Influenza A virus A/South Carolina/1/18 (H1N1)). The assay is described as above.
Assay [24] concerns the target recombinant soluble homotrimeric HA of A/Vietnam/1203/04 (H5N1) (Influenza A virus A/VietNam/1203/2004(H5N1)). The description is as above.
The target of assay [25] is recombinant soluble homotrimeric HA of A/chicken/Vietnam/NCVD-016/08 (H5N1) (Influenza A virus A/chicken/Vietnam/NCVD-016/2008(H5N1)). Described as above.
Assay [26] deals with recombinant homotrimeric HA A/swine/Ontario/01911-2/99 H4N6 (Influenza A virus A/Swine/Ontario/01911-2/99 (H4N6)). Nature of the assay: protein microarray, purified IgG, trimeric HA.

B1: TCN-555 (5246_L16) (antibody, V domains shown)
VH: QVQLVQSGAEVKRPGSSVKVSCTASGGIFRKNAISWVRQAPGQGLEWMGGIIAVFNTANYAQKFQNRVKITADESGNTAYMELSSLTSDDTAVYYCASHPKYFYGSGSYPDFWGQGTLVTVSS
VL: QSALTQPRSVSGSPGQSITISCTGGSSDIGASNSVSWYQQHPGKAPKLVIFDVTERPSGVPHRFSGSKSGNTASLTVSGLQPDDEADYFCCAYGGKYLVVFGGGTKVTVL
For the molecule B1, the Trimeric HA Binding: RLU in [1] amounted to 42700 RLU; in assay [2], 12200 RLU; in assay [3], 20200 RLU; in assay [4] it was 20000 RLU; in assay [5], 36300 RLU; in assay [6] it was 33900 RLU. Also, the Trimeric HA Binding: RLU in assay [7] worked out at 16700 RLU; in assay [8], 44600 RLU; in assay [9], 48000 RLU; in assay [10], 19300 RLU; in [11] it was 14700 RLU; in [12], 35200 RLU. The values for the Trimeric HA Binding: RLU in assay [13], in assay [14] and in [15] were 8540 RLU, 28700 RLU and 375 RLU, respectively.

B2: TCN-563 (5237_B21) (antibody, V domains shown)
VH: B1 VH with V5A, N66G, T87R
VL: B1 VL with I18V, G25S, I29V, F51Y, D83E
As for B2, the Trimeric HA Binding: RLU amounted to 27500 RLU in assay [1]; 1570 RLU in assay [16]; 21200 RLU in assay [17]; 23900 RLU in [18]; 47300 RLU in assay [19]; 11200 RLU in assay [20]. In addition, the Trimeric HA Binding: RLU is 5420 RLU in assay [21]; 26500 RLU in assay [22]; 17800 RLU in [23]; 31500 RLU in assay [24]; 36300 RLU in assay [25].

B3: TCN-528 (5087_P17) (antibody, V domains shown)
VH: QVQLVQSGSEVKKPGASVKVSCKASGYTFTNYDINWIRQAPGQGLEWMGWINPNSGTTGSAQRFQGRVTITVDTSITTVYMELSSLRSDDTAIYYCARGRELLRLQHFLTDSQSERRDCFDPWGQGTLVTVSS
VL: DIQMTQSPSSLSASVGDRVTITCRANQDIGIYLNWYQQNPGKVPKLLLHGASSLQGGVPSRFSASGSGTDFTLTIHSLQPEDLATYYCQQSRRLPYTFGQGTRVELK
As for B3, the Trimeric HA Binding: RLU in assay [15] was 24100 RLU; in assay [26], 9490 RLU; in assay [16], 21200 RLU; in assay [17] it was 44600 RLU; in assay [18], 36800 RLU; in [19], 39700 RLU. For the same molecule, the Trimeric HA Binding: RLU in assay [20] worked out at 23100 RLU; in assay [21], 47200 RLU; in assay [22], 26900 RLU; in assay [23], 25200 RLU; in [24], 23300 RLU; in assay [25], 22600 RLU.

B4: TCN-522 (3212_I12) (antibody, V domains shown)
VH: QVQLQQWGAGLLKPSETLSLTCTVSGGSLTDYSWNWIRQPPGKGLEWIGDTLHNGYTNYNPSLRGRVSISIDTSKNQVSLRLTSVTAADTALYYCARGSGGYGGFDYFGKLRTWDFWGQGTLVTVSS
VL: DIQLTQSPSSLSASVGDRVTITCRASQGIRNDLGWYQQKPGNAPKRLIFGASSLQSGVPSRFSGSGSGTEFTLTISSLQPEDFATYYCLQHNSYPYTFGQGTKLEIK
As for B4, the Trimeric HA Binding: RLU in assay [26] was found to be 73 RLU; in assay [16] it was 2030 RLU; in assay [17] it was 37500 RLU; in assay [18] it was 55400 RLU; in [19], 50500 RLU; in [20], 11900 RLU. Moreover, the Trimeric HA Binding: RLU in assay [21] turned out to be 2170 RLU; in assay [22], 17300 RLU; in [23], 39600 RLU; in [24], 48200 RLU; in assay [25], 49300 RLU.

B5: TCN-527 (5086_C06) (antibody, V domains shown)
VH: QVQLQESGPGLVKPSETLSLNCAVSGGSISNYYWSWIRQPPGKGLEWIGYISYNGRPKYNPSLTSRVTISVDTSKDQFSLELRSVTAADTALYYCARETRFGELLSPYDAFEIWGQGTMVTVSS
VL: DIQMTQSPSSLSASVGDRVTMTCRASQNIRSYLNWYQQRPGTAPKLLIYAASTLHSGVPSRFSGGGSGTDFTLTINNLQPEDFASYYCQQSYDNPQTFGQGTKVEIK
As to B5, the Trimeric HA Binding: RLU was determined as 26000 RLU in [15]; 11100 RLU in [26]; 15200 RLU in assay [16]; 21500 RLU in [17]; 23600 RLU in [18]; 23400 RLU in assay [19]. For the same molecule, the Trimeric HA Binding: RLU in assay [20] was 20800 RLU; in assay [21], 49100 RLU; in [22], 19700 RLU; in assay [23], 48100 RLU; in assay [24], 20600 RLU; in assay [25], 20100 RLU.

B6: TCN-557 (5081_A04) (antibody, V domains shown)
VH: QVQLVQSGAEVKKPGASVKVSCKASGHTFTGYYIHWVRQAPGQGLEWMGWINPDSGATSSAQNFQGRVTMTGDTSSSTAYMELSRLSFDDTAVYYCARVLFTSPFDFWGEGTLVTVSS
VL: QAVVTQEPSLAVSPGGTVTLTCGSSTGAVTRGHYPYWFQQKPGQAPRALIYDSAGNRHSWTPARFSGSLLGGKAALTLSGAQPEDEAEYYCLLSYSGVWVFGGGTKLTVL
Consider B6, for which the Trimeric HA Binding: RLU in [2] was determined as 20000 RLU; in [3], 44400 RLU; in [4], 26400 RLU; in assay [5], 27100 RLU; in [6], 22200 RLU; in assay [7], 27300 RLU. For the same molecule, the Trimeric HA Binding: RLU in [8] was found to be 27000 RLU; in [9], 44900 RLU; in assay [10], 21300 RLU; in [11], 46100 RLU; in assay [12] it was 23300 RLU; in assay [13] it was 24000 RLU. The Trimeric HA Binding: RLU worked out at 49600 RLU in assay [14], 27200 RLU in assay [15] and 19200 RLU in [26].
